In publication PMC2873897 (Nature structural & molecular biology, 2010):

Key:
[1] = target: E-cadherin ectodomain (Mus musculus) (UniProt P09803); experiment: AUC; settings: cited from earlier work
[2] = target: T cadherin EC1-2 I2A (mouse); experiment: AUC
[3] = target: E cadherin EC1-2 W2A (mouse); experiment: AUC
[4] = target: T cadherin EC1-2 G extension (mouse) (UniProt Q9WTR5); experiment: AUC
[5] = target: C-cadherin ectodomain (Xenopus laevis) (UniProt P33148); experiment: AUC; settings: cited from earlier work
[6] = target: T-cadherin EC1-2 wild-type (mouse) (UniProt Q9WTR5); experiment: SPR
[7] = target: T cadherin EC1-2 R14E/D140K (charge reversal rescue mutant) (mouse); experiment: AUC
[8] = target: E cadherin EC1-2 MR extension (mouse); experiment: AUC
[9] = target: E cadherin EC1-2 wild-type (WT) (mouse); experiment: AUC
AUC [10] = target: the molecule itself; experiment: AUC
AUC [11] = target: the molecule itself; experiment: AUC; remark: listed apart in the source

**Q.** With “E-cadherin ectodomain (from UniProt P09803)” as the molecule, how does the Kd [1] read?
**A.** 80 µM

**Q.** Which Kd [2] does the source give for “T cadherin EC1-2 I2A (domain or fragment)” here?
**A.** 37.1 µM

**Q.** Which Kd [3] does the source give for “E cadherin EC1-2 W2A (domain or fragment)” here?
**A.** 916 µM

**Q.** For “T cadherin EC1-2 G extension (from UniProt Q9WTR5 140-355) (domain or fragment)”, which Kd [4] is on record?
**A.** 16.5 µM

**Q.** With “C-cadherin ectodomain (from UniProt P33148)” as the molecule, how does the Kd [5] read?
**A.** 64 µM

**Q.** With “T-cadherin EC1-2 R14S D140S (domain or fragment)” as the molecule, how does the fold reduction of the binding level against wild type [6] read?
**A.** > 5 fold

**Q.** For “T cadherin EC1-2 R14E/D140K (charge reversal rescue mutant) (domain or fragment)”, which Kd [7] is on record?
**A.** 149 µM

**Q.** Which Kd [8] does the source give for “E cadherin EC1-2 MR extension (domain or fragment)” here?
**A.** 258 µM

**Q.** With “E cadherin EC1-2 wild-type (WT) (domain or fragment)” as the molecule, how does the Kd [9] read?
**A.** 98.6 µM

**Q.** With “T-cadherin EC1-2 R14S (domain or fragment)” as the molecule, how does the fold reduction of the binding level against wild type [6] read?
**A.** 5 fold

B1: T-cadherin EC1-2 wild-type (domain or fragment, mouse)
chain: IVVSPILIPENQRQPFPRDVGKVVDSDRPEGSKFRLTGKGVDQDPKGTFRINENTGSVSVTRTLDRETIATYQLYVETTDASGKTLEGPVPLEVIVIDQNDNRPIFREGPYIGHVMEGSPTGTTVMRMTAFDADDPATDNALLRYNIRQQTPDKPSPNMFYIDPEKGDIVTVVSPALLDRETLENPKYELIIEAQDMAGLDVGLTGTATATIVIDD
**Q.** Which results are given for B1?
**A.** stoichiometry N (AUC [10]): 2; Kd (AUC [11]): 41.4 ± 1.7 µM
